Here are results for 15 sequences from the DeepSol protein solubility set.

A short description of the series: soluble on expression in E. coli; label from the status in PepcDB or PDB records.
As to “MAHHHHHHMCLLSFFSLYPLGSFSSGKSNMDTPPISDDDKEVIDRLFASDVPQSLSRHAVLILHYHRTVFGSMVPSNVLLAGCLLYSCKWLSYPSGNSFLKNYFQGMKTSDIVGLEMVLHGTVRQNFMLVEACLRSEMSEIVRLNDVPHNRERIVLVCLNLVRALYRTRWCLLPETAARGALLVACEMCDVHLKSLPESFNTTMVTCAVDYLRSIFAQSRC”, the “soluble on expression in E. coli” value is listed as “not soluble”.
To “MSLIKWGFIGCGEVTKTKSGPAFQKVEHSEVVAVMSRDGAKAKAYAKERGIRKWYDDAQELIDDPEVNAIYIATPPSSHATYAIMAMKAGKPAYIEKPMAVTYEECTRINRISKETGVPCFVAYYRRYLPYFQKVKEMVENGSIGNVINVQVRFAQPPRDLDYNRENLPWRVQADIAGGGYFYDLAPHQIDLLQDMFGCILEASGYKSNRGGLYPAEDTLSACFQFDNGLVGSGSWCFVAHDSAREDRIEIIGDKGMICFSVFTYEPIGLHTERGREEICIGNPEHVQQPLIQAVVDHLLGKSVCSCDGESATLTNWVMDKILGKLEGHHHHHH” belongs “soluble”; to “MGSDKIHHHHHHMDKFLYVAMSGAKQNMSALAVRANNLANANTDGFKSDLTQARSMQAFGEGLPSRVFAMTEIATSDFKAGALKTTGRDLDIAVKGDGWIAVQAPDGSEAYTRSGGLKFDNTGLLLNSRNNPVMGNSGPIVLPLPIDKLQISPDGIISIRPQGATAEVIEEVARIKLVNPDNSQMMRGEDGLFRLTSGDVAAKDPSVQVESGAIEASNVNPVEEMVALISIQRQYEMQVKMMKTAEETDQASSSLMRIG”, “not soluble”; to “MELQQRTLTIGLGNDIAVQTEGVGFIRGQLVADHAEINSVFKVVVKAALIVVKTLFADGYPHAIFQRFLMPDNRNRQHRADKAVGLVGIADDAEIRIAFCLISNAFFFTELIIGIGCGKADCGHFFVVFAAGSASVHKVSDFQNEFAVKPFAGKQHPHQYIGNHAGINRPPIISPQPCQQSGKRPVDYKKYAPNLRYPAGIAHGFFRQVGLLQPRKFFNHRLPGKQAAAEHRQHHQIDEDGIPIHRIMPPEHQYCGKKQCNKQSRITLLGQFGSQGAQQPQPAHRRRQPNKPARLPAVYSGLTKTSTALPRLAVLSAASSPCPDFC”, “not soluble”.
Next, “MAQENSTVKPTQAELTLLNVLWKMGPATVRQVHDVVSTTQKTGYTTVLKILQIMHEKSLVIRDESNRAHVYAAANSQTQTQSSLIKDLISKAFGGSTSKLVMRAIDDSTSEQEINDIRQLLNSLEK”: “not soluble”.
Next, “MSLAQFTTNPQRFDPYKNFKFRIKWGADYVAGVSKISGLKRTTEVVKHREGGDPSSSRKSPGRTEYEAITMERGVTHDVAFEQWANKVWNYGSGLGKEVSLADFRKDLVIEVYNEAGQAAMRYKVFRCWVSEFQSMSDLDANGNAVLIQHLKLETEGWERDYDLVEPKEGTFTEPAEGHHHHHH”: “soluble”; “MSLGKISFPVGVLFSGSGSYAQPARQGFRGAMTAIAHINASRRFPFNLQAHHFDPAGEADRYASLCRQLIRERDVRHVVGCTTSWSRKEAIPVVEKLDALLWYPCVYEGFEVSENLIYVAACANQHLVPLLDYIAPRFGSRAMLVGANYIWGWENNRIARDILHRSGGEVLGERFVSIGDTDIDHLIDEVREKRPDFILNNLIGPSSYAFLRAYQALGEADDRFRPEKCPIISCNLYEGEITGLGHAAAGHFTVSCYFRTLQSPENDSFLKTLAALDPGAIVDAFYAQAFSAVVMIAEAIMRCGSDDADLVRGALRGQSVDTPLGAISVDRWTNHVELPAHIGRARADGSFEIVKREGHHHHHH”: “not soluble”.
Take “MSLDVDSKTLIHAGKLIDGKSDQVQSRISIVIDGNIISDIKKGFISSNDFEDYIDLRDHTVLPGLMDMHVHFGQEYQSKAQAPIKVEREMQAILATQHAYVTFKSGFTTVRQVGDSGLVAISLRDAINSGKLAGPRIFAAGKTIATTGGHADPTNGKAVDDYDYPVPEQGVVNGPYEVYAAVRQRYKDGADGIKITVTGGVLSVAKSGQNPQFTQEEVDAVVSAAKDYGMWVAVHAHGAEGMKRAIKAGVDSIEHGTFMDLEAMDLMIENGTYYVPTISAGEFVAEKSKIDNFFPEIVRPKAASVGPQISDTFRKAYEKGVKIAFGTDAGVQKHGTNWKEFVYMVENGMPAMKAIQSATMETAKLLRIEDKLGSIESGKLADLIAVKGNPIEDISVLENVDVVIKDGLLYEGHHHHHH”: the “soluble on expression in E. coli” value is recorded as “soluble”.
For “SNAMKDVLAEYASRIVSAEEAVKHIKNGERVALSHAAGVPQSCVDALVQQADLFQNVEIYHMLCLGEGKYMAPEMAPHFRHITNFVGGNSRKAVEENRADFIPVFFYEVPSMIRKDILHIDVAIVQLSMPDENGYCSFGVSCDYSKPAAESAHLVIGEINRQMPYVHGDNLIHISKLDYIVMADYPIYSLAKPKIGEVEEAIGRNCAELIEDGATLQLGIGAIPDAALLFLKDKKDLGIHTEMFSDGVVELVRSGVITGKKKTLHPGKMVATFLMGSEDVYHFIDKNPDVELYPVDYVNDPRVIAQNDNMVSINSCIEIDLMGQVVSECIGSKQFSGTGGQVDYVRGAAWSKNGKSIMAIPSTAKNGTASRIVPIIAEGAAVTTLRNEVDYVVTEYGIAQLKGKSLRQRAEALIAIAHPDFREELTKHLRKRFG”, the “soluble on expression in E. coli” value is listed as “soluble”.
In the case of “MFEITRPPGVRAHVGVIGGSGLYDPGIVENPVEVKVSTPYGNPSDFIVVGDVAGVKVAFLPRHGRGHRIPPHAINYRANIWALKALGVKWVISVSAVGSLREDYRPGDFVVPDQFIDMTKNRRHYTFYDGPVTVHVSMADPFCEDLRQRLIDSGRRLGYTVHERGTYVCIEGPRFSTRAESRVWKDVFKADIIGMTLVPEINLACEAQLCYATLAMVTDYDVWADRPVTAEEVERVMISNVERARRMLYDVIPKLAGEPELERCSCCRALDTAAI”, the “soluble on expression in E. coli” value was “soluble”.
Regarding “MTKNEIRKYILHKMKNFNKAEKRKADTWLRNQFFATEEYKEANAIALVLSFNHEVDTFSIIEQALMDHKRIFVPKMDYLNHQMTFKEIFNLKDIDVDNKGIYYPTSKGETTNNLDLIVVPGVGFQDDGYRIGYGGGYYDRFLANYQTKTISLLYDFQITSFEPESFDQPVDKLIIYQSALEHHHHHH”, the “soluble on expression in E. coli” value was “soluble”.
Consider “SFDRALKPFLKSCHFQTLRDPVDQCVSYHLRSVTEKFPEVHMEVIADYEVHPNRRPKILAQTAAHVAGAAYYYQRQDVDADPWGTQHIAGVCIHPRFGGWFAIRGVMLLPGIEVPNLPPRKPPDCVPTRAGRITLLEGFNFHWRDWTYRDAVTPEERYSEEQKIYFSTPPAQRLALLGLAQPSEHPSTTSELPLSLLTKPQNSRRARSWLSPSVSPPVSPGP”, for which the “soluble on expression in E. coli” value is on record as “soluble”.
To “MRLLYVIKKENPMDQMPNCPKCQSEYVYHDSINFVCPDCGNEWDNNEIQESDDDQLIVKDSNGNLLAEGDNVLLIKDLKLKGSSEVLKKGTKFKNIRLVNGDHNVDCGKIMLKSEFLKKALEHHHHHH” belongs “soluble”; to “MRKIIHVDMDCFFAAVEMRDNPALRDIPIAIGGSRERRGVISTANYPARKFGVRSAMPTGMALKLCPHLTLLPGRFDAYKEASNHIREIFSRYTSRIEPLSLDEAYLDVTDSVHCHGSATLIAQEIRQTIFNELQLTASAGVAPVKFLAKIASDMNKPNGQFVITPAEVPAFLQTLPLAKIPGVGKVSAAKLEAMGLRTCGDVQKCDLVMLLKRFGKFGRILWERSQGIDERDVNSERLRKSVGVERTMAEDIHHWSECEAIIERLYPELERRLAKVKPDLLIARQGVKLKFDDFQQTTQEHVWPRLNKADLIATARKTWDERRGGRGVRLVGLHVTLLDPQMERQLVLGL”, “soluble”; to “MSLNVLIVDDEKLIRQGIINFFDWEKEGFQIVGEAANGKDALELISKNEPHIVMTDIVMPVMDGIDLVKRVKRDFPEVEIIVLSSFEEFEYVRSTFHSGVADYILKPRLNEKDLLKTLSEVRGKIPALAKVDSPSRAVPSISDQFEKILNGHAPLSQDDTGEKRFPKGPYRLAVITPIEEQDVHRRKQHLDEREQAITGIDVVCSIEKEGDAVLLLPLEGDVSSSMKQALDDFLKGRDAHALLVSSPFSSIYEAKEVYERDIPLLKQYSFYLPDTPLLIYDELPKTNEGVKTFDLNHFIELCKGRKFAIGFQYLLDYVEYMSTRYTQTSTECKAFLGNIIFNMIVLMGNLKYDVKELEREKYHYFATINAAKNVREATDCFYQFLEVTKQIISVYSNEGSSSIQKMLAYIEEHHSEPLSLSQLANYFHFNPSYLSAYFRQHHDEGFSEYLNKVRIRKAKEWLKSSTIPISEIYALVGYSDHSYFCKVFKKRTGMPPSRYRRENAEGHHHHHH”, “soluble”.
